This test has as its target HLA-A*24 (human). In words: UV-exchange ELISA, exchange yield grade.
As for NYGVLHVTF [… (SEQ ID NO: 359)], the peptide exchange yield was > 75%.
VYNYAEQTL [… (SEQ ID NO: 362)] came in with a peptide exchange yield of 20 to 49%.
IFHEVPLKF [… (SEQ ID NO: 351)]: the peptide exchange yield was 50 to 75%.
To LYQDHMQYI [… (SEQ ID NO: 367)] belongs 20 to 49%; to VYNEQIRDLL [… (SEQ ID NO: 354)], 50 to 75%; to VYPAEQPQI [… (SEQ ID NO: 306)], 50 to 75%.
On to QYIEELQKF [… (SEQ ID NO: 385)], for which the peptide exchange yield lay within 50 to 75%.
In turn, KYPASSSVF [… (SEQ ID NO: 381)] yielded a peptide exchange yield of 50 to 75%.
As for KYTDYILKI [… (SEQ ID NO: 375)], the peptide exchange yield was in the range of 50 to 75%.
RYFKGDYSI [… (SEQ ID NO: 314)] registered a peptide exchange yield of 50 to 75%.
GYAFTLPLF [… (SEQ ID NO: 307)] displayed a peptide exchange yield of 50 to 75%.
In turn, KYYRQTLLF [… (SEQ ID NO: 309)] came in with a peptide exchange yield of 20 to 49%.
The molecule KYLNENQLSQL [… (SEQ ID NO: 364)] had a peptide exchange yield of 50 to 75%.
Turning to KYQNVKHNL [… (SEQ ID NO: 368)], the peptide exchange yield lay within 50 to 75%.
With SYAELGTTI [… (SEQ ID NO: 363)], the peptide exchange yield fell in the range of 20 to 49%.
To EYNEVANLF [… (SEQ ID NO: 304)] belongs 50 to 75%.
Regarding TYADIGGLDNQI [… (SEQ ID NO: 361)], the peptide exchange yield lay within 50 to 75%.
To VFSPDGHLF [… (SEQ ID NO: 360)] belongs 50 to 75%.
Take KFDDVTMLF [… (SEQ ID NO: 301)]: the peptide exchange yield is > 75%.
QYGGDLTNTF [… (SEQ ID NO: 352)] displayed a peptide exchange yield of 50 to 75%.
Molecule VYTPVASRQSL [… (SEQ ID NO: 376)] yielded a peptide exchange yield of 50 to 75%.
In turn, SYLVIHERI [… (SEQ ID NO: 295)] returned a peptide exchange yield of 50 to 75%.
VYTGIDHHW [… (SEQ ID NO: 380)]: the peptide exchange yield was > 75%.
With SYQVIFQHF [… (SEQ ID NO: 296)], the peptide exchange yield is > 75%.
With KYSDVKNLI [… (SEQ ID NO: 319)], the peptide exchange yield is > 75%.
LYSVIKEDF [… (SEQ ID NO: 303)] returned a peptide exchange yield of 50 to 75%.
With KYQYVLNEF [… (SEQ ID NO: 299)] the figure was 50 to 75%; with VFDTSIAQLF [… (SEQ ID NO: 317)], 50 to 75%; with EYNSDLHQFF [… (SEQ ID NO: 345)], 50 to 75%.
Turning to RYKPGEPITF [… (SEQ ID NO: 383)], the peptide exchange yield is 50 to 75%.
With RFIGIPNQF [… (SEQ ID NO: 370)] the figure was 50 to 75%; with AYSHLRYVF [… (SEQ ID NO: 371)], 20 to 49%; with QYTPHSHQF [… (SEQ ID NO: 377)], 50 to 75%.
For VYAEVNSL [VYAEVNSL (SEQ ID NO: 347)], the peptide exchange yield was 50 to 75%.
To QFITSTNTF [… (SEQ ID NO: 357)] belongs > 75%.
In the case of VYIAELEKI [… (SEQ ID NO: 378)], the peptide exchange yield was in the range of 50 to 75%.
To VYVIEPHSMEF [… (SEQ ID NO: 372)] belongs 50 to 75%; to NYENKQYLF [… (SEQ ID NO: 305)], > 75%; to TYPSQLPSL [… (SEQ ID NO: 300)], 50 to 75%.
TFDGHGVFF [… (SEQ ID NO: 308)]: the peptide exchange yield was in the range of 50 to 75%.
In turn, QYSIISNVF [… (SEQ ID NO: 349)] yielded a peptide exchange yield of 50 to 75%.
Molecule AYLPPLQQVF [… (SEQ ID NO: 382)] registered a peptide exchange yield of 50 to 75%.
Molecule QYLELAHSL [… (SEQ ID NO: 366)] returned a peptide exchange yield of 50 to 75%.
For TYIDTRTVF [… (SEQ ID NO: 297)], the peptide exchange yield is > 75%.
NYAFLHRTL [… (SEQ ID NO: 342)] came in with a peptide exchange yield of 50 to 75%.
For RYFDVGLHNF [… (SEQ ID NO: 384)], the peptide exchange yield was in the range of 50 to 75%.
Take LYLPVHYGF [… (SEQ ID NO: 302)]: the peptide exchange yield is 50 to 75%.
Regarding KYTHFIQSF [… (SEQ ID NO: 313)], the peptide exchange yield was > 75%.
For the molecule YYSEVPVKL [… (SEQ ID NO: 358)], the peptide exchange yield lay within 50 to 75%.
In the case of NYMPGQLTI [… (SEQ ID NO: 356)], the peptide exchange yield was > 75%.
Molecule IYLEHTESI [… (SEQ ID NO: 348)] displayed a peptide exchange yield of 50 to 75%.
As to NYLGGTSTI [… (SEQ ID NO: 343)], the peptide exchange yield was 50 to 75%.
Regarding EYLQNLNHI [… (SEQ ID NO: 311)], the peptide exchange yield was > 75%.
With SYLTQHQRI [… (SEQ ID NO: 341)] the figure was 50 to 75%; with FYIPHVPVSF [… (SEQ ID NO: 315)], 50 to 75%.
In turn, VYTHEVVTL [… (SEQ ID NO: 369)] came in with a peptide exchange yield of 50 to 75%.
With VFIAQGYTL [… (SEQ ID NO: 379)] the figure was > 75%; with VYFEGSDFKF [… (SEQ ID NO: 316)], 50 to 75%.
As to IYVTGGHLF [… (SEQ ID NO: 355)], the peptide exchange yield was 50 to 75%.
The molecule TYSNSAFQYF [… (SEQ ID NO: 318)] displayed a peptide exchange yield of 50 to 75%.
On to VFIDHPVHL [… (SEQ ID NO: 365)], for which the peptide exchange yield was > 75%.
Regarding GYISNGELF [… (SEQ ID NO: 373)], the peptide exchange yield lay in the range of 50 to 75%.
SYTSVLSRL [… (SEQ ID NO: 312)] yielded a peptide exchange yield of 50 to 75%.
In turn, KYGNFIDKL [… (SEQ ID NO: 350)] came in with a peptide exchange yield of 50 to 75%.
Molecule IYAPTLLVF [… (SEQ ID NO: 310)] yielded a peptide exchange yield of 50 to 75%.
On to AYKSEVVYF [… (SEQ ID NO: 298)], for which the peptide exchange yield is > 75%.
As to TYGKIDLGF [… (SEQ ID NO: 353)], the peptide exchange yield was in the range of 50 to 75%.
Molecule VFLPRVTEL [… (SEQ ID NO: 374)] registered a peptide exchange yield of 20 to 49%.
Regarding EYNSDLHQF [… (SEQ ID NO: 344)], the peptide exchange yield lay in the range of 50 to 75%.
